Experimental data: US20060222638A1, “Cholesterol biosynthesis pathway modulators and uses thereof” (priority 2003, published 2006)
“Also recorded” adds a separate entry of the source. Where two headings read alike, the source gives them in different places.

Experiments:
HMG-CoA reductase = biological target: T1, HMG-CoA reductase (Homo sapiens, UniProt P04035); assay: HMGCoA reductase activity assay, HepG2 cells treated with inhibitors, cell proteins used as enzyme source; format: cell-based
T1 construct: The cell proteins were used as enzyme source; endogenous in cells; host or cells: HepG2
T1 sequence (P04035 1-888): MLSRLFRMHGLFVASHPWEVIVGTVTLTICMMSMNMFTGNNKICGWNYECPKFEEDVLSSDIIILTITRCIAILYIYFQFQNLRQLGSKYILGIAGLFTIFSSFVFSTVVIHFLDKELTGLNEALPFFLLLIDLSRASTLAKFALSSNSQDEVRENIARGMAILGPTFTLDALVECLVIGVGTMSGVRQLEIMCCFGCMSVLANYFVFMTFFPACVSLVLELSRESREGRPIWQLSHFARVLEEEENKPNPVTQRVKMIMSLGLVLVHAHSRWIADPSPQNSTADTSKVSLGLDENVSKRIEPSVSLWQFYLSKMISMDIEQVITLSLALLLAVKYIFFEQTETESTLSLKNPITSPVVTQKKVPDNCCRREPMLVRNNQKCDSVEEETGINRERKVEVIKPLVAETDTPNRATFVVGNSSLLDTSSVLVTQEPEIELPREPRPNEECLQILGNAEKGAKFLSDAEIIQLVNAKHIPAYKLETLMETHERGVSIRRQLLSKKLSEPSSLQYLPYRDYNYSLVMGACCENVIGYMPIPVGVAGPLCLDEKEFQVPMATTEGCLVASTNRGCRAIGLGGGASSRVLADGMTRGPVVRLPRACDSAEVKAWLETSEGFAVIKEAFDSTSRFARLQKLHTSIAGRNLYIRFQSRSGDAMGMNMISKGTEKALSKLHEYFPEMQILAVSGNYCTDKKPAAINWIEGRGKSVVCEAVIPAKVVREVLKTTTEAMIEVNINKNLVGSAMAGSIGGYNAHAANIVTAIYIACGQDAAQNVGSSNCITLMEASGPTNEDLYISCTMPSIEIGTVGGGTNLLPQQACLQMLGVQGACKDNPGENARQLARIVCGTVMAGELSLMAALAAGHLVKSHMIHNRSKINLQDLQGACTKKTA
Protocol: The cell stocks of Human Hepatoma cell line-HepG2 were cultured in T-25 flask in Eagle's minimum essential medium (MEM), supplemented with 10% fetal bovine serum, and incubated in a humidified incubator (5% CO2) at 37° C.
After 4 hours incubation with the inhibitors, the media was discarded and cells were washed with 0.90%saline. The cells were scraped and collected into a 50 ml tube. The cells were centrifuged at 2400 rpm for 5 min at 4 C, and the resulting cell pellet was washed twice with 10 ml saline. The final cell pellet was resuspended in 30 μl lysis buffer and briefly sonicated. The suspension was centrifuged at 14,000 rpm for 15 min and the supernatant containing the enzyme, HMGCoA reductase, was used for the assay.
In biosynthesis of cholesterol, HMG-CoA reductase is the key enzyme to convert HMG-CoA to its product mevalonate. In the presence of HCl, the mevalonate is converted into mevalonolactone. […] It will retain HMG-CoA, which is negatively charge in the column but not mevalonolactone, which will be eluted out by ammonium formate.
The 50 μl assay buffer (100 mM potassium dihydrogen phosphate, 4 mM dithiothreitol, 20 mM glucose-6-phosphate, 20 unit glucose-6-phosphate dehydrogenase, 2.5 mM NADP^+, 30 μM [14C] HMG-CoA (0.01 μCi) and microsomal protein) was incubated at 37° C. for 1 hour. Reaction was terminated by addition of 25 μl of 2M HCl. After 30 min lactonization of mevalonate to mevalonolactone, 500 μl of 20 mM ammonium formate was added to each sample, spun for 5 min at 14,000 rpm.
Supernatant was applied to the column that is pre-packed with QAE-Sephadex (4 cm), equilibrated with ammonium formate. The first 5 ml fractions was eluted with 20 mM ammonium formate, followed by 5 ml of 0.05M HCl and 10 ml of 0.1M HCl. Radioactivity of the first 5 ml (1 ml fraction) was determined using Beckman LS6500 scintillation counter.

HepG2 cell = assay: Microarray analysis (global gene expression, HG_U133A chips) of treated HepG2 cells; format: cell-based, human
Protocol: The global gene expression (DNA microarray) analysis was carried out on human gene chips (HG_U133A). […] Genes showing two-fold signal to log ratio in expression from two independent experiments were scored as significant.

[1] = biological target: T2, HMG-CoA reductase from human hepatoma HepG2 cells (human) (UniProt P04035); assay: cell-based or functional assay
T2 sequence: T1 sequence (P04035 1-888)

[2] = test system: HepG2 cell protein profile; assay: Protein profiling by SELDI-TOF (H4 and NP20 chips) of treated HepG2 cells; format: cell-based, human; details: Table 3A, hydrophobic chip H4
Text: As for the protein profiling data, the profiles as shown in Table 3 were obtained by surface-enhanced laser […] ionization-time of flight mass spectro-photometry (SELDI-TOF) on treated and control samples using the H4 (hydrophobic) and the NP20 (hydrophilic) chips.

HMGCoA reductase = biological target: T3, HMGCoA reductase (Rattus norvegicus, UniProt P51639); assay: HMGCoA reductase assay using the enzyme isolated from rat hepatocytes, inhibitors added to the enzyme assay; format: biochemical; details: enzyme from rat hepatocytes / rat liver microsomes
T3 construct: enzymes purified from the rat liver microsomes; from tissue; host or cells: rat hepatocytes / rat liver microsomes
T3 sequence (P51639 1-887): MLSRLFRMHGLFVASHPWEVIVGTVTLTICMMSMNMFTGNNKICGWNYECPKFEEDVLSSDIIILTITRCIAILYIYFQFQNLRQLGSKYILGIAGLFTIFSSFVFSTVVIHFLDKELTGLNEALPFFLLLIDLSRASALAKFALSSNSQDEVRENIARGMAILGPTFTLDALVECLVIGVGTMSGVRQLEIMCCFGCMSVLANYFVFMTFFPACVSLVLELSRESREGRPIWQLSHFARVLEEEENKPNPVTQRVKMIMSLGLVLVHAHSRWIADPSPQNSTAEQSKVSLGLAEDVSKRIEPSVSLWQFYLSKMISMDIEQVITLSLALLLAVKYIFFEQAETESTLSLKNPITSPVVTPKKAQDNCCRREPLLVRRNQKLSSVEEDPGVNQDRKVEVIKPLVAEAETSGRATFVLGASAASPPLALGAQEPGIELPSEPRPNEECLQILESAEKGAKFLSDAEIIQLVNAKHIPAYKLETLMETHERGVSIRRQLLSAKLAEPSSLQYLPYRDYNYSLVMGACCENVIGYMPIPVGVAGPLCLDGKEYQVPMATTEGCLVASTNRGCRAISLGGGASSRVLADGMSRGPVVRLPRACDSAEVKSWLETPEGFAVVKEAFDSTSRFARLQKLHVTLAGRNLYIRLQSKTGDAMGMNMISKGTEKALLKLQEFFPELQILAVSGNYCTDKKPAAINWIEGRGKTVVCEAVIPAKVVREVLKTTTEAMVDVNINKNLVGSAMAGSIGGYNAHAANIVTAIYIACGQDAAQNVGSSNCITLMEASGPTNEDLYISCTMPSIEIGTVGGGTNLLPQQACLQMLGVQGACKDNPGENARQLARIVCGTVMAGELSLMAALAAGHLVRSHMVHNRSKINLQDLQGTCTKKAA

[3] = HepG2 cells treated with synthetic peptides or statins at 10 μM, vs untreated cells
[4] = HepG2, read-out: % of inhibition on HMG-CoA reductase activity, DMSO medium

SPWNEGD (Buthus martensii Karsch) [Peptide 8]
% of inhibition on HMG-CoA reductase activity, Aqueous medium (HMG-CoA reductase; [3]): 1%

GCQRQTDEFCNKICKLHLASG (Buthus martensii Karsch) [Peptide 5]
% of inhibition on HMG-CoA reductase activity, Aqueous medium (HMG-CoA reductase; [3]): 2%

DSLSPWNEGDTYYG (Buthus martensii Karsch) [Peptide 6]
% of inhibition on HMG-CoA reductase activity, Aqueous medium (HMG-CoA reductase; [3]): 4%

KLHLASGGSCQQPAPFVKL (Buthus martensii Karsch) [Peptide 2]
% of inhibition on HMG-CoA reductase activity, Aqueous medium (HMG-CoA reductase; [3]): 30% | % of inhibition on HMG-CoA reductase activity, DMSO medium (HMG-CoA reductase; [3]): 7%

CC[C@H](C)C(=O)O[C@H]1CCC=C2C=C[C@H](C)[C@H](CC[C@@H]3C[C@@H](O)CC(=O)O3)[C@H]21 [Mevastatin, reference compound]
% of inhibition on HMG-CoA reductase activity, Aqueous medium (HMG-CoA reductase; 10 µM): 35% | % of inhibition on HMG-CoA reductase activity, DMSO medium (HMG-CoA reductase; 10 µM): 60%

LSPWNEGDTYYGCQR (Buthus martensii Karsch) [Peptide 7]
% of inhibition on HMG-CoA reductase activity, Aqueous medium (HMG-CoA reductase; [3]): 2%

QPAPFVKLCTCQGI (Buthus martensii Karsch) [Peptide 1]
% of inhibition on HMG-CoA reductase activity, Aqueous medium (HMG-CoA reductase; [3]): 20% | % of inhibition on HMG-CoA reductase activity, DMSO medium (HMG-CoA reductase; [3]): 20%

CC(C)n1c(/C=C/C(O)CC(O)CC(=O)O)c(-c2ccc(F)cc2)c2ccccc21 (centres unmarked) [Fluvastatin, reference compound]
inhibition at 10 µM (HMG-CoA reductase; HepG2 cells treated with synthetic peptides or statins at 10 μM, vs untreated cells, read-out: % of inhibition on HMG-CoA reductase activity, DMSO medium): 74%

GDTYYG (Buthus martensii Karsch) [Peptide 9]
% of inhibition on HMG-CoA reductase activity, Aqueous medium (HMG-CoA reductase; [3]): 3%

QGIDYDNSFFFGALEKQCPK (Buthus martensii Karsch) [Peptide 4]
% of inhibition on HMG-CoA reductase activity, Aqueous medium (HMG-CoA reductase; [3]): 7%

PAPFVKLCTCQGIDYDNSFFFG (Buthus martensii Karsch) [Peptide 3]
% of inhibition on HMG-CoA reductase activity, Aqueous medium (HMG-CoA reductase; [3]): 10% | % of inhibition on HMG-CoA reductase activity, DMSO medium (HMG-CoA reductase; [3]): 15%

CCC(C)(C)C(=O)O[C@H]1C[C@@H](C)C=C2C=C[C@H](C)[C@H](CC[C@@H]3C[C@@H](O)CC(=O)O3)[C@H]21 [Simvastatin, reference compound]
inhibition at 10 µM (HMG-CoA reductase; HepG2, read-out: % of inhibition on HMG-CoA reductase activity, Aqueous medium): 35% | inhibition at 10 µM (HMG-CoA reductase; [4]): 65%

CC(C)c1c(C(=O)Nc2ccccc2)c(-c2ccccc2)c(-c2ccc(F)cc2)n1CC[C@@H](O)C[C@@H](O)CC(=O)O [Atorvastatin, reference compound]
inhibition at 10 µM (HMG-CoA reductase; [4]): 70%

B1: JCH2 native protein purified from Buthus martensii Karsch venom (protein)
chain: DSLSPWNEGDTYYGCQRQTDEFCNKICKLHLASGGSCQQPAPFVKLCTCQGIDYDNSFFFGALEKQCPKLRE
HMGCoA reductase mRNA (in words) (HepG2 cell; microarray): reducing the reductase mRNA | mevalonate, the precursor for cholesterol biosynthesis (in words) (HepG2 cell; microarray analysis): lowering the mevalonate | % of inhibition on HMG-CoA reductase activity, aqueous medium, JCH2 at 0.6 µM (10 µg) [1]: 30% | ApoC-II/III (8.8 kDa) [2]: ↑ ↑ | StAR related lipid transfer protein (23.0 kDa) [2]: ↑ ↑ | HMGCoA reductase inhibitory activity (in words) (HMGCoA reductase): higher inhibitory activity | HMGCoA reductase inhibitory activity compared with statins (in words) (HMG-CoA reductase; HepG2 cell HMGCoA reductase, JCH2 0.6 μM vs statins 10 μM): lowering the HMGCoA reductase activity at much lower concentrations than the known inhibitors; also recorded: higher inhibitory activity | % of inhibition on HMG-CoA reductase activity, Aqueous medium (HMG-CoA reductase; HepG2 cells treated with native proteins at 10 μg each (JCH2 0.6 μM), vs untreated cells): 30%
